Positions of bridges follow the written chain, without caps; N, C: chain ends. No end group written: not given here.
Key:
human C-reactive protein [1] = molecular target: T1, human C-reactive protein (human, UniProt P02741 19-224); assay: apparent whole-cell KD, flow cytometry with CRP-Alexa Fluor 488
T1 construct: Biotinylated or labelled with Alexa Fluor 488; also called CRP; C-RP
T1 sequence (looked up): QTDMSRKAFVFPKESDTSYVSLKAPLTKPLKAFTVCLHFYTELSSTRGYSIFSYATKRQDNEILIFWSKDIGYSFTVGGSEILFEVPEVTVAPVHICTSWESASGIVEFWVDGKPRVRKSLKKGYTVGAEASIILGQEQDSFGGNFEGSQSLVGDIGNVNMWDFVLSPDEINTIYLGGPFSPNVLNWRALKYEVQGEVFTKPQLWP
Protocol: (§1) To obtain equilibrium binding curves, cells were labeled over a range of concentrations, e.g., about 0.1 to about 200 nM, of fluorescently conjugated target proteins (streptavidin-phycoerythrin or CRP-Alexa Fluor® 488) and analyzed by flow cytometry, as above. The corresponding mean fluorescence versus concentration data were fit to a monovalent binding isotherm to obtain the apparent KD. Dissociation rates of streptavidin-binding clones were measured in the presence of about 1 to about 2 μM biotin. Cells were labeled with 50 nM streptavidin-phycoerythrin for 30 minutes at room temperature. The cells were then pelleted, resuspended in PBS with biotin, and immediately analyzed by flow cytometry. Fluorescence data were collected continuously for about five minutes. The dissociation rate constants were then determined as described previously. See Daugherty, P. S., et al. (1998) Protein Eng. 11(9):825-832, which is herein incorporated by reference.

human C-reactive protein [2] = molecular target: T1, human C-reactive protein; assay: equilibrium dissociation constant of a selected displayed peptide, whole-cell flow cytometry at various CRP concentrations
Protocol: The library was first depleted of streptavidin binding peptides by incubation with streptavidin coated microbeads, e.g., from Qiagen, Inc. (Valencia, Calif.). Then the library was incubated with biotinylated human C-reactive protein at 10 nM final concentration, and two rounds of magnetic selection were used to enrich CRP binding peptides. […] Equilibrium binding affinities were measured in the whole cell format, by determining cell fluorescence at various concentrations of target CRP. See e.g. FIG. 17.
as §1, with “11(9):825-832, which is herein incorporated by reference.” left out

streptavidin [3] = molecular target: T2, streptavidin (UniProt P22629 37-163, limits assumed); assay: whole-cell dissociation by flow cytometry with biotin as competitor
T2 construct: Used as phycoerythrin conjugate or on coated beads; also called SA; streptavidin-phycoerythrin
Protocol: (§2) To enable comparison of the phage and bacterial display peptides, a bacterial display clone was constructed with the insertion, […] (SEQ ID NO:65), and the KD and kdiss were measured in whole cell assays.
as §1

streptavidin [4] = molecular target: T2, streptavidin; assay: whole-cell dissociation by flow cytometry, 1-2 uM biotin as competitor
Protocol: The apparent binding affinities of a subset of the selected peptides were determined using flow cytometric analysis. […] See Daugherty, P. S., et al. (1998) Protein Eng. 11(9):825-832, which is herein incorporated by reference. […] See Daugherty, P. S., et al. (1998) Protein Eng. 11(9):825-832; and Feldhaus, M. J., et al. (2003) Nat. Biotechnol. 21(2): 163-170, which are herein incorporated by reference. […] Apparent dissociation rate constants (kdiss) were determined for streptavidin, using about 1 to about 2 μM biotin as a competitor to prevent re-binding.
as §1

streptavidin [5] = molecular target: T2, streptavidin; assay: apparent whole-cell KD, flow cytometry with streptavidin-phycoerythrin
Protocol: as §1

streptavidin [6] = molecular target: T2, streptavidin; assay: equilibrium dissociation constant of a selected displayed peptide, whole-cell flow cytometry
Protocol: as §1

streptavidin [7] = molecular target: T2, streptavidin; assay: whole-cell dissociation by flow cytometry (FIG. 10B), SA-7 against SA-1
Protocol: as §1

streptavidin [8] = molecular target: T2, streptavidin; assay: apparent whole-cell KD, flow cytometry with streptavidin-phycoerythrin; remark: listed apart in the source
Protocol: as §2, §1

streptavidin [9] = molecular target: T2, streptavidin; assay: selection from the E. coli OmpA display library

B1: CRP-1 (peptide)
peptide: EWACNDRGFNCQLQR
modifications: not fully specified (bridges); cysteine pairing not given here
notes: Insert only; said to be a cyclic peptide (two cysteines)
- Kd (human C-reactive protein [1]): 1 nM
- Kd (human C-reactive protein [2]): 1.2 nM

B2: SA-3 (peptide)
peptide: TVLICMNICWTGETQ
notes: Insert only
- koff (streptavidin [3]): 0.0007 s⁻¹
- koff (streptavidin [4]): ~0.001 s⁻¹
- Kd (streptavidin [5]): 4 nM
- Kd (streptavidin [6]): 4 nM

B3: SA-7 (peptide)
peptide: NEWYCQNVCERMPHS
notes: Insert only
- koff (streptavidin [4]): ~0.01 s⁻¹
- fold difference of dissociation rate constant against SA-1 (streptavidin [7]): 4 fold

B4: Clone HPQ (peptide)
peptide: SAECHPQGPPCIEGR
modifications: disulfide 4-11 (inferred)
notes: Insert only; also called cyclic HPQ clone
- fold faster dissociation rate (kdiss) against clone SA-1 (streptavidin [3]): 20 fold
- fold higher apparent KD against clone SA-1 (streptavidin [8]): 5 fold

B5: SEQ ID NO 243 (peptide)
peptide: QVKLHPMAPVVPSHW
- binding result (streptavidin [9]): binds

Source: US20190264194A1 (published 2019)
